# Measured values published in US11015206B2, “Compositions and methods comprising sequences having hydroxyphenylpyruvate dioxygenase (HPPD) activity” (PIONEER HI-BRED INTERNATIONAL, INC., priority 2014, dated 2021).
# How the values were obtained:
# Format in all cases: biochemical, Z. mays
# [1] = test system: 4-hydroxyphenylpyruvate dioxygenase (HPPD); test: Insensitivity parameter (ON × OFF) and trait fitness (ON × OFF × kcat/KM or × kcat); parameters: key to ON × OFF / Insensitivity, mesotrione, ON × OFF / Insensitivity, tembotrione, ON × OFF / Insensitivity, topramezone, ON × OFF / Insensitivity, sulcotrione, ON × OFF / Insensitivity, isoxaflutole (DKN), ON × OFF: insensitivity = ON rate ratio × OFF rate ratio (surrogate for KD)
# Procedure, shortened: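 Calculated, not measured directly: ON rate ratio × OFF rate ratio gives an insensitivity parameter serving as a KD surrogate.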
# [2] = test system: 4-hydroxyphenylpyruvate dioxygenase (HPPD); test: OFF rate ratio: release of inhibitor from pre-formed enzyme-inhibitor complex; conditions: Table 7; tembotrione; combinatorial variants
# Procedure, shortened: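 HPPD (7.2 μM) pre-incubated 1 h at RT with inhibitor (8 μM), then diluted into 25 mM Hepes pH 7, 2 mM ascorbate, 10 μM FeSO4, 100 μM HPP, 50 nM HGD; A320 followed 12 min. Ratio = steady-state rate with inhibitor over initial rate of inhibitor-free enzyme.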
# [3] = test system: 4-hydroxyphenylpyruvate dioxygenase (HPPD); test: Estimate of kcat from initial rate at saturating hydroxyphenylpyruvate without inhibitor (ON rate ratio assay)
# Procedure, shortened: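 Reactions used 60 or 120 nM HPPD and saturating 100 μM hydroxyphenylpyruvate without inhibitor. kcat was estimated from the initial rate at the known enzyme concentration.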
# [4] = test system: 4-hydroxyphenylpyruvate dioxygenase (HPPD); test: ON rate ratio: HPPD reaction rate with vs without inhibitor in the 70 to 90 second interval; conditions: Table 7; tembotrione; combinatorial variants
# Procedure, shortened: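 Time courses of HPPD reactions, 60 or 120 nM enzyme with 100 μM HPP substrate, run with and without 4 μM inhibitor (e.g. mesotrione, tembotrione). Value is the rate with inhibitor over rate without, taken over 70–90 s; higher ratio reflects slower kON.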
# [5] = Table 7, tembotrione, combinatorial variants
# [6] = Table 7, combinatorial variants
"ON × OFF ([1]; Megatable 3, shuffled variants)","ON × OFF [1, 5]",OFF rate ratio [2],ON rate ratio [4],Molecule,"ON × OFF × kcat ([1]; Megatable 3, shuffled variants)","ON × OFF × kcat [1, 5]","kcat ([3]; Megatable 3, shuffled variants) [min⁻¹]","kcat [3, 6] [min⁻¹]"
0.271,0.271,0.381,0.712,"P056028-C-08 (protein, Zea mays variant form created by artificial means.) MGPTPTATAAGAAVAAASAAEQAAFRLVGHRNFVRFNPRSDRFQTLAFHHVELWCADAASAAGRFSFALGVPLAARSDLSTGNSAHASLLLRSGSLSLLFTAPYAHGADAATAALPSFSAAAARRFAADHGLAVRAVALRVADAEDAFRASVAAGARPAFGPVDLGRGFRLAEVELYGDVVMRYVSYPDGAAGEPFLPGFEGVASPGAADYGLSRFDHIVGNVPELAPAAAYMAGFTGFHEFAEFTTEDVGTTESGLNSMALANNSENVLLPLNEPVHGTKRRSQIQTFLDHHGGPGVQHIALASDDVLRTLREMRARSAMGGFEFLPPPLSDYYDGVRKCAGDVLTEAQINECQELGVMVDRDDEGVLLQIFTKPVGDRPTFFLEIIQRIGCMEKDEKGQEYQKGGCGGFGKGNFGQLFKSIEDYEKSLDAKQAAAAATAQGS",3.65,3.65,13.5,13.5
0.170,0.170,0.253,0.670,"P056028-D-10 (protein, Zea mays variant form created by artificial means.) MGPTPTATAAGAAVAAASAAEQAAFRLVGHRNFVRFNPRSDRFQTLAFHHVELWCADAASAAGRFSFALGVPLAARSDLSTGNSAHASLLLRSGSLSLLFTAPYAHGADAATAALPSFSAAAARRFAADHGLAVRAVALRVADAEDAFRASVAAGARPAFGPVDLGRGFRLAEVELYGDVVLRYVSYPDGAAGEPFLPGFEGVASQGAADYGLSRFDHIVGNVPELAPAAAYMAGFTGFHEFAEFTTEDVGTTESGLNSMALANDSENVLLPLNEPVHGTKRRSQIQTFLDHHGGPGVQHIALASDDVLRTLREMRARSAMGGFEFLPPPLSDYYDGVRRCAGDVLTEAQINECQELGVMVDRDDEGVLLQIFTKPVGDRPTFFLEIIQRIGCMEKDEKGQEYQKGGCGGFGKGNFGQLFKSIEDYEKSLEAKQAAAAATAQGS",3.07,3.07,18.1,18.1
0.222,0.222,0.314,0.706,"P056028-C-09 (protein, Zea mays variant form created by artificial means.) MGPTPTATAAGAAVAAASAAEQAAFRLVGHRNFVRFNPRSDRFQTLAFHHVELWCADAASAAGRFSFALGVPLAARSDLSTGNSAHASLLLRSGSLSLLFTAPYAHGADAATAALPSFSAAAARRFAADHGLAVRAVALRVADAEDAFRASVAAGARPAFGPVDLGRGFRLAEVELYGDVVLRYVSYPDGAAGEPFLPGFEGVASPGAADYGLNRFDHIVGNVPELAPAAAYMAGFTGFHEFAEFTTEDVGTTESGLNSMALANNSENVLLPLNEPVHGTKRRSQIQTFLDHHGGPGVQHIALASDDVLRTLREMRARSAMGGFEFLPPPLSDYYDGVRRCAGDVLTEAQINECQELGVMVDRDDEGVLLQIFTKPVGDRPTFFLEIIQRIGCMEKDEKGQEYQKGGCGGFGKGNFGQLFKSIEDYEKSLEAKQAAAAATAQGS",3.76,3.76,17,17
0.254,0.254,0.348,0.728,"P056028-D-01 (protein, Zea mays variant form created by artificial means.) MGPTPTATAAGAAVAAASAAEQAAFRLVGHRNFVRFNPRSDRFQTLAFHHVELWCADAASAAGRFSFALGVPLAARSDLSTGNSAHASLLLRSGSLSLLFTAPYAHGADAATAALPSFSAATARRFAADHGLAVRAVALRVADAEDAFRASVAAGARPAFGPVDLGRGFRLAEVELYGDVVLRYVSYPDGAAGEPFLPGFEGVASQGAADYGLSRFDHIVGNVPELAPAAAYMAGFTGFHEFAEFTTEDVGTTESGLNSMALANNSENVLLPLNEPVHGTKRRSQIQTFLDHHGGPGVQHIALASDDVLRTLREMRARSAMGGFEFLPPPLSDYYDGVRRCAGDVLTEAQINECQKLGVMVDRDDEGVLLQIFTKPVGDRPTFFLEIIQRIGCMEKDEKGQEYQKGGCGGFGKGNFGQLFKSIEDYEKSLEAKQAAAAATAQGS",5.39,5.39,21.3,21.3

# The remaining lines, values behind:
Molecule,"ON × OFF ([1]; Megatable 3, shuffled variants)","ON × OFF [1, 5]",OFF rate ratio [2],ON rate ratio [4],"ON × OFF × kcat ([1]; Megatable 3, shuffled variants)","ON × OFF × kcat [1, 5]","kcat ([3]; Megatable 3, shuffled variants) [min⁻¹]","kcat [3, 6] [min⁻¹]"
"P056028-C-04 (protein, Zea mays variant form created by artificial means.) MGPTPTATAAGAAVAAASAAEQAAFRLVGHRNFVRFNPRSDRFQTLAFHHVELWCADAASAAGRFSFALGVPLAARSDLSTGNSAHASLLLRSGSLSLLFTAPYAHDADAATAALPSFSAAAARRFAADHGLAVRAVALRVADAEDAFRASVAAGARPAFGPVDLGRGFRLAEVELYGDVVLRYVSYPDGGAGEPFLPGFEGVASSGAADYGLSRFDHIVGNVPELAPAAAYMAGFTGFHEFAEFTTEDVGTTESGLNSMALANNSENVLLPLNEPVLGTKRRSQIQTFLDHHGGPGVQHIALASDDVLRTLREMRARSAMGGFEFLPPPLSDYYDGVRRCAGDVLTEAQINECQELGVMVDRDDEGVLLQIFTKPVGDRPTFFLEIIQRIGCMEKDEKGQEYQKGGCGGFGKGNFSQLFKSIEDYEKSLEAKRAAAAATAQGS",0.234,0.234,0.322,0.727,5.32,5.32,22.7,22.7
"P056028-C-06 (protein, Zea mays variant form created by artificial means.) MGPTPTATAAGAAVAAASAAEQAAFRLVGHRNFVRFNPRSDRFQTLAFHHVELWCADAASAAGRFSFALGVPLAARSDLSTGNSAHASLLLRSGSLSLLFTAPYAHGADAATAALPSFSAAAARRFAADHGLAVRAVALRVADAEDAFRASVAAGARPAFGPVDLGRGFRLAEVELYGDVVLRYVSYPDGGAGEPFLPGFEGVASSGAADYGLNRFDHIVGNVPELAPAAAYMAGFTGFHEFAEFTTEDVGTTESGLNSMALANNSENVLLPLNEPVHGTKRRSQIQTFLDHHGGPGVQHIALASDDVLRTLREMRARSAMGGFEFLPPPLSDYYDGVRKCAGDVLTEAQINECQRLGVMVDRDDEGVLLQIFTKPVGDRPTFFVEIIQRIGCMEKDEKGQEYQKGGCGGFGKGNFGQLFKSIEDYEKSLEAKQAAAAATAQGS",0.261,0.261,0.351,0.742,2.77,2.77,10.6,10.6
